Test results taken from article PMC4703885.

B1: EGFP-tagged RepoMan-WT, Q69YH5 S400D; T412D; T419D (protein)
chain: MDANSKDKPPETKESAMNNAGNASFILGTGKIVTPQKHAELPPNPCTPDTFKSPLNFSTVTVEQLGITPESFVRNSAGKSSSYLKKCRRRSAVGARGSPETNHLIRFIARQQNIKNARKSPLAQDSPSQGSPALYRNVNTLRERISAFQSAFHSIKENEKMTGCLEFSEAGKESEMTDLTRKEGLSACQQSGFPAVLSSKRRRISYQRDSDENLTDAEGKVIGLQIFNIDTDRACAVETSVDLSEISSKLGSTQSGFLVEESLPLSELTETSNALKVADCVVGKGSSDAVSPDTFTAEVSSDAVPDVRSPATPACRRDLPTPKTFVLRSVLKKPSVKMCLESLQEHCNNLYDDDGTHPSLISNLPNCCKEKEAEDEENFEAPAFLNMRKRKRVTFGEDLDPEVFDESLPANDPLRKGGDPVCKKDFSGLSSLLLEQSPVPEPLPQPDFDDKGENLENIEPLQVSFAVLSSPNKSSISETLSGTDTFSSSNNHEKISSPKVGRITRTSNRRNQLVSVVEESVCNLLNTEVQPCKEKKINRRKSQETKCTKRALPKKSQVLKSCRKKKGKGKKSVQKSLYGERDIASKKPLLSPIPELPEVPEMTPSIPSIRRLGSGYFSSNGKLEEVKTPKNPVKRKDLLRHDPDLHMHQGYDKYDVSEFCSYIKSSSSLGNATSDEDPNTNIMNINENKNIPKAKNKSESENEPKAGTDSPVSCASVTEERVASDSPKPALTLQQGQEFSAGGQNAENLCQFFKISPDLNIKCERKDDFLGAAEGKLQCNRLMPNSQKDCHCLGDVLIENTKESKSQSEDLGRKPMESSSVVSCRDRKDRRRSMCYSDGRSLHLEKNGNHTPSSSVGSSVEISLENSELFKDLSDAIEQTFQRRNSETKVRRSTRLQKDLENEGLVWISLPLPSTSQKAKRRTICTFDSSGFESMSPIKETVSSRQKPQMAPPVSDPENSQGPAAGSSDEPGKRRKSFCISTLANTKATSQFKGYRRRSSLNGKGESSLTALERIEHNGERKQ
B2: EGFP-tagged RepoMan-WT, Q69YH5 T412D (protein)
chain: MDANSKDKPPETKESAMNNAGNASFILGTGKIVTPQKHAELPPNPCTPDTFKSPLNFSTVTVEQLGITPESFVRNSAGKSSSYLKKCRRRSAVGARGSPETNHLIRFIARQQNIKNARKSPLAQDSPSQGSPALYRNVNTLRERISAFQSAFHSIKENEKMTGCLEFSEAGKESEMTDLTRKEGLSACQQSGFPAVLSSKRRRISYQRDSDENLTDAEGKVIGLQIFNIDTDRACAVETSVDLSEISSKLGSTQSGFLVEESLPLSELTETSNALKVADCVVGKGSSDAVSPDTFTAEVSSDAVPDVRSPATPACRRDLPTPKTFVLRSVLKKPSVKMCLESLQEHCNNLYDDDGTHPSLISNLPNCCKEKEAEDEENFEAPAFLNMRKRKRVTFGEDLSPEVFDESLPANDPLRKGGTPVCKKDFSGLSSLLLEQSPVPEPLPQPDFDDKGENLENIEPLQVSFAVLSSPNKSSISETLSGTDTFSSSNNHEKISSPKVGRITRTSNRRNQLVSVVEESVCNLLNTEVQPCKEKKINRRKSQETKCTKRALPKKSQVLKSCRKKKGKGKKSVQKSLYGERDIASKKPLLSPIPELPEVPEMTPSIPSIRRLGSGYFSSNGKLEEVKTPKNPVKRKDLLRHDPDLHMHQGYDKYDVSEFCSYIKSSSSLGNATSDEDPNTNIMNINENKNIPKAKNKSESENEPKAGTDSPVSCASVTEERVASDSPKPALTLQQGQEFSAGGQNAENLCQFFKISPDLNIKCERKDDFLGAAEGKLQCNRLMPNSQKDCHCLGDVLIENTKESKSQSEDLGRKPMESSSVVSCRDRKDRRRSMCYSDGRSLHLEKNGNHTPSSSVGSSVEISLENSELFKDLSDAIEQTFQRRNSETKVRRSTRLQKDLENEGLVWISLPLPSTSQKAKRRTICTFDSSGFESMSPIKETVSSRQKPQMAPPVSDPENSQGPAAGSSDEPGKRRKSFCISTLANTKATSQFKGYRRRSSLNGKGESSLTALERIEHNGERKQ

Biological target: protein phosphatase PP1 (endogenous), P36873
Experiment: EGFP trap, immunoblotting, densitometric analysis
Details: chain shown with the change; non-synchronized HEK293T cells; three independent experiments; parent: est. 1.0; read off a plot

Chain of protein phosphatase PP1 (endogenous), P36873 (P36873 whole entry): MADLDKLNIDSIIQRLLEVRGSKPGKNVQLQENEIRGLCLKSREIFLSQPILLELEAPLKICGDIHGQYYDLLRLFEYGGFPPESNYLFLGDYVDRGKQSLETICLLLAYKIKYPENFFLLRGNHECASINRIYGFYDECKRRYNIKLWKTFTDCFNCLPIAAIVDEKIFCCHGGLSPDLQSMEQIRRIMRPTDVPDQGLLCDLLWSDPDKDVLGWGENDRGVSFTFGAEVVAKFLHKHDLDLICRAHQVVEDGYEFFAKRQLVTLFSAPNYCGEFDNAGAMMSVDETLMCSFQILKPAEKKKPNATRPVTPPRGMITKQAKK

| Binder | ratio to parent |
| --- | --- |
| B1 | 0.19 |
| B2 | 0.43 |
